# Source: patent US20010010923A1, “MODIFIED CARBOXYPEPTIDASE” (priority 1997, published 2001)
# Substitutions are numbered along the chain they refer to. Numbers in names are those of the source. Entries after “also recorded” stand apart in the source; their conditions may differ. Marks after values point to notes of the source that are not given here.
# B1: M398V: carboxypeptidase Y S1' mutant, substitution M398V (protein, UniProt P00729 112-532, looked up, variant M398V)
# Carboxypeptidase Y: KIKDPKILGIDPNVTQYTGYLDVEDEDKHFFFWTFESRNDPAKDPVILWLNGGPGCSSLTGLFFELGPSSIGPDLKPIGNPYSWNSNATVIFLDQPVNVGFSYSGSSGVSNTVAAGKDVYNFLELFFDQFPEYVNKGQDFHIAGESYAGHYIPVFASEILSHKDRNFNLTSVLIGNGLTDPLTQYNYYEPMACGEGGEPSVLPSEECSAMEDSLERCLGLIESCYDSQSVWSCVPATIYCNNAQLAPYQRTGRNVYDIRKDCEGGNLCYPTLQDIDDYLNQDYVKEAVGAEVDHYESCNFDINRNFLFAGDWMKPYHTAVTDLLNQDLPILVYAGDKDFICNWLGNKAWTDVLPWKYDEEFASQKVRNWTASITDEVAGEVKSYKHFTYLRVFNGGHVVPFDVPENALSMVNEWIHGGFSL
# B2: T60E: carboxypeptidase Y S1' mutant, substitution T60E (protein, UniProt P00729 112-532, looked up, variant T60E)
# Carboxypeptidase Y: B1 Carboxypeptidase Y with T60E, V398M
# B3: M398I: carboxypeptidase Y S1' mutant, substitution M398I (protein, UniProt P00729 112-532, looked up, variant M398I)
# Carboxypeptidase Y: B1 Carboxypeptidase Y with V398I
# B4: T60A + M398L: carboxypeptidase Y double substitution mutant T60A + M398L (protein, UniProt P00729 112-532, looked up, variant T60A M398L)
# Carboxypeptidase Y: B1 Carboxypeptidase Y with T60A, V398L
# B5: T60A + M398Y: carboxypeptidase Y double substitution mutant T60A + M398Y (protein, UniProt P00729 112-532, looked up, variant T60A M398Y)
# Carboxypeptidase Y: B1 Carboxypeptidase Y with T60A, V398Y
# B6: T60D + M398Y: carboxypeptidase Y double substitution mutant T60D + M398Y (protein, UniProt P00729 112-532, looked up, variant T60D M398Y)
# Carboxypeptidase Y: B1 Carboxypeptidase Y with T60D, V398Y
# B7: T60F: carboxypeptidase Y S1' mutant, substitution T60F (protein, UniProt P00729 112-532, looked up, variant T60F)
# Carboxypeptidase Y: B1 Carboxypeptidase Y with T60F, V398M
# B8: T60Y + M398Y: carboxypeptidase Y double substitution mutant T60Y + M398Y (protein, UniProt P00729 112-532, looked up, variant T60Y M398Y)
# Carboxypeptidase Y: B1 Carboxypeptidase Y with T60Y, V398Y
# B9: T60Y + M398L: carboxypeptidase Y double substitution mutant T60Y + M398L (protein, UniProt P00729 112-532, looked up, variant T60Y M398L)
# Carboxypeptidase Y: B1 Carboxypeptidase Y with T60Y, V398L
# B10: T60C: carboxypeptidase Y S1' mutant, substitution T60C (protein, UniProt P00729 112-532, looked up, variant T60C)
# Carboxypeptidase Y: B1 Carboxypeptidase Y with T60C, V398M
# B11: T60D + M398L: carboxypeptidase Y double substitution mutant T60D + M398L (protein, UniProt P00729 112-532, looked up, variant T60D M398L)
# Carboxypeptidase Y: B1 Carboxypeptidase Y with T60D, V398L
# Experiment: Transpeptidation of FA-Ala-Xaa-OH with H-Gly-NH2, Table 2
# Type: biochemical
# Details: FA-Ala-Ala-OH 0.2 mM; 1.9 M H-Gly-NH2; pH 7.5; room temperature
# Description: (§1) Transamidation reactions were carried out generally as described in PCT Application WO 95/20039. In general, the method included dissolving the nucleophile (H-Leu-NH2, unless otherwise indicated) in 50 mM HEPES, 5 mM EDTA and adjusting the pH to 7.5, 5 μl of peptide substrate (8 mM Bz-G-A-R-A-R-A-OH, unless otherwise indicated, in methanol) was added to 190 μl nucleophile solution followed by 5 μl enzyme, resulting in a substrate concentration of 0.2 mM.
# (§2) During the reaction, 20 μl aliquots were removed from the reaction mixture and added to 50 μl 1% trifluoroacetic acid to quench the reaction. The reactant composition was determined by HPLC using a Waters HPLC equipped with a C-18 Waters Novapac 4μ reverse phase column and various gradients of acetonitrile in 0.1% trifluoroacetic acid. The separation was monitored at 254 nm allowing the direct quantification of the products from the integrated peak areas. The composition of the reaction mixture was determined at least twvice during the reaction, the first when 20-50% (preferably 35%) of the substrate had been consumed in the reaction and the second time when 50-90% (preferably 80%) of the peptide substrate had been consumed.
# (§3) The fraction of aminolysis (fa) was expressed as the ratio between the formed aminolysis product and the sum of all products formed. Unconsumed substrate was disregarded in the calculations.
# Site specific mutagenesis was performed as described for Example 1 to produce the S1 mutants used below.
# Transamidation reactions were performed as described for Example 1.
row,Molecule,"Fraction of aminolysis (fa), P1' Ala"
1,B1,0.93
2,B2,0.82
3,B3,0.93
4,B4,0.92
5,B5,0.80
6,B6,0.70
7,B7,0.85
8,B8,0.74
9,B9,0.92
10,B10,0.92
11,B11,0.89

# Same assay, conditions: FA-Ala-Leu-OH 0.2 mM; 1.9 M H-Gly-NH2; pH 7.5; room temperature
row,Molecule,"Fraction of aminolysis (fa), P1' Leu"
1,B1,0.91
2,B2,0.05
3,B3,0.91
4,B4,0.94
5,B5,0.83
6,B6,0.75
7,B7,0.17
8,B8,0.77
9,B9,0.95
10,B10,0.19
11,B11,0.89

# Same assay, conditions: FA-Ala-Met-OH 0.2 mM; 1.9 M H-Gly-NH2; pH 7.5; room temperature
row,Molecule,"Fraction of aminolysis (fa), P1' Met"
1,B1,0.83
2,B2,0.07
3,B3,0.83
4,B4,0.72
5,B5,0.83
6,B6,0.72
7,B7,0.21
8,B8,0.76
9,B9,0.93
10,B10,0.15
11,B11,0.66

# Same assay, conditions: FA-Ala-Phe-OH 0.2 mM; 1.9 M H-Gly-NH2; pH 7.5; room temperature
row,Molecule,"Fraction of aminolysis (fa), P1' Phe"
1,B1,0.86
2,B2,0.02
3,B3,0.75
4,B4,0.52
5,B5,0.81
6,B6,0.56
7,B7,0.12
8,B8,0.75
9,B9,0.87
10,B10,0.08
11,B11,0.62

# Same assay, conditions: FA-Ala-Val-OH 0.2 mM; 1.9 M H-Gly-NH2; pH 7.5; room temperature
row,Molecule,"Fraction of aminolysis (fa), P1' Val"
1,B1,0.81
2,B2,0.33
3,B3,0.87
4,B4,0.91
5,B5,0.81
6,B6,0.71
7,B7,0.15
8,B8,0.74
9,B9,0.89
10,B10,0.27
11,B11,0.90

# Same assay, conditions: larger, hydrophobic leaving group such as leucine
row,Molecule,"fraction of aminolysis compared to wild type, in words"
1,B1,improvement in fraction of aminolysis obtained; also recorded: most dramatic improvement; also recorded: enhanced transpeptidation
2,B3,improvement in fraction of aminolysis obtained; also recorded: most dramatic improvement
3,B4,further improved the fraction of aminolysis
4,B5,further improved the fraction of aminolysis
5,B6,further improved the fraction of aminolysis
6,B8,further improved the fraction of aminolysis
7,B9,further improved the fraction of aminolysis
8,B11,further improved the fraction of aminolysis

# Same assay, conditions: larger, hydrophobic leaving group such as leucine; listed as M3981
row,Molecule,"fraction of aminolysis compared to wild type, in words"
1,B3,enhanced transpeptidation

# Experiment: Transpeptidation of FA-Ala-OBzl with H-Leu-NH2, Table 3
# Type: biochemical
# Details: FA-Ala-OBzl 0.2 mM; H-Leu-NH2; pH 7.5
# Description: as §1, §2, §3
# Site specific mutagenesis was performed as described in Example 1 to produce the specific substitution mutants described below. Transamidation reactions were performed as described for Example 1.
# In table 3, below, KN(app) represents the nucleophile concentration at which fa is half of the maximum value (a measure for the dissociation constant of the nucleophile). famax is the highest possible fa obtained at saturation of the enzyme with the nucleophile.
# KN(app) indicates the concentration at which famax/2 is reached and thus describes the apparent binding constant of the nucleophile. Because the competing hydrolysis reaction is thought to occur while the leaving group remains attached to the to the acyl-enzyme intermediate, a low KN(app) is preferred.
row,Molecule,fa
1,B1,0.87^a
2,B2,0.94^a
3,B3,0.94^a
4,B4,0.99^a
5,B5,0.97^a
6,B6,0.89^a
7,B7,0.98^a
8,B8,0.99^a
9,B9,1.0^a
10,B10,0.98^a
11,B11,1.0^a

# Same assay, conditions: nucleophile H-Leu-NH2 concentration at which fa is half of maximum; FA-Ala-OBzl 0.2 mM; pH 7.5
row,Molecule,KN(app)
1,B1,1.43^b mM
2,B2,2.0^b mM
3,B3,0.91^b mM
4,B4,1.0^b mM
5,B5,9.1^b mM
6,B6,9.2^c mM
7,B8,5.4^b mM
8,B9,1.7^c mM
9,B11,2.0^b mM
